Patent publication US20190144550A1 (Pfizer, published 2019)

Columns and labels:
EGFR-mFc [1] = target: T1, EGFR-mFc (human; mouse, UniProt P00533 25-645); test: flow cytometry, CAR T cells stained with mFc fusion protein, Day 4
T1 construct: extracellular domain; Produced in HEK293 cells; also called recombinant EGFR-mFc; not shown: mouse IgG1-Fc domain
Excerpt: (§1) To determine target binding specificity of the CARs, recombinant proteins EGFRvII-mFc and EGFR-mFc, which comprise of the extracellular domain of either human EGFRvIII or human wild-type EGFR, respectively, fused with mouse IgG1-Fc domain, were produced in HEK293 cells. […]

[2] = target: T2, 8-histidine tagged recombinant wild-type protein EGFRwt (UniProt P00533 25-645, limits assumed); test: SPR, captured by anti-human Fc
T2 construct: not shown: 8-histidine tag

[3] = target: T3, Monomeric 8-histidine tagged human EGFRvIII extracellular domain (human, UniProt P00533 298-645); test: SPR, captured by anti-human Fc, 25 C
T3 construct: Analyte in all SPR assays; not shown: 8-histidine tag
Excerpt: (§2) Anti-EGFRvII mouse (m) antibody, m62G7, generated from hybridomas was sequenced and subcloned into suitable vectors for expression as murine-human chimeric antibodies. The CDRs of mouse antibody m62G7 were grafted onto human framework and expressed as human IgG1 recombinant antibody, h62G7. Affinity variants of h62G7 were made by introducing mutations in the CDRs of the heavy and light chains. The affinities of recombinant anti-EGFRvIII chimeric antibody m62G7 and humanized h62G7 antibodies were measured on a surface plasmon resonance Biacore™ T200 biosensor equipped with a research-grade anti-human Fc coupled CM4 sensor chip (GE Healthcare Inc., Piscataway, N.J.). Anti-EGFRvII antibodies were then captured by anti-human Fc. Monomeric 8-histidine tagged human EGFRvIII extracellular domain was then injected as the analyte at 10-fold dilution series with top concentration at 1000 nM. Affinity of anti-EGFRvIII antibodies towards human EGFRvIII was measured at both 25° C. and 37° C.

[4] = target: T3, Monomeric 8-histidine tagged human …; test: SPR, captured by anti-human Fc, 37 C
Excerpt: as §2

[5] = target: T3, Monomeric 8-histidine tagged human …; test: SPR, captured by anti-human Fc, 25 C; 25 C
[6] = target: T3, Monomeric 8-histidine tagged human …; test: SPR, captured by anti-human Fc, 25 C; remark: listed apart in the source
Procedure: Human anti-EGFRvIII antibodies were sequenced and subcloned into suitable vectors for expression as recombinant human IgG1 antibodies. […] (Table 9) on a surface plasmon resonance Biacore™ T200 biosensor equipped with an anti-human Fc coupled CM4 sensor chip (GE Healthcare Inc., Piscataway, N.J.). Anti-EGFRvII antibodies were captured by anti-human Fc. Monomeric 8-histidine tagged human EGFRvIII extracellular domain was then injected as the analyte at 10-fold dilution series starting at 1000 nM.

EGFR-mFc [7] = target: T1, EGFR-mFc; test: flow cytometry, CAR T cells on Day 4 after transduction incubated with EGFR-mFc, then PE-labeled goat anti-mouse Fc
Excerpt: as §1

Row | Binder | binding result [2] | Kd [3] [nM] | koff [3] [s⁻¹] | kon [3] [M⁻¹ s⁻¹] | Kd [4] [nM] | koff [4] [s⁻¹] | kon [4] [M⁻¹ s⁻¹] | also measured
1 | 26B9 EGFRvIII specific CAR (other, Chimeric antigen receptor on primary human T cells) EVQLVESWGVLVKPGGSLRLSCAASGFIFNNAWMSWVRQAPGKGLEWIGRIKSKSDGGTTDYAAPVKDRFTISRDDSKDTLYLQMNGLKTEDTAVYFCTTAPGGPFDYWGQGTLVTVSSGGGGSGGGGSGGGGSGGGGSDIVLTQSPLSLPVTPGEPASISCRSSQSLLHRDGFNYLDWFLQKPGQSPQLLIYLASSRASGVPDRFSGSDSGTDFTLKISRVEAEDVGVYYCMQALQTPITFGQGTRLEIKTTTPAPRPPTPAPTIASQPLSLRPEACRPAAGGAVHTRGLDFACDIYIWAPLAGTCGVLLLSLVITLYCKRGRKKLLYIFKQPFMRPVQTTQEEDGCSCRFPEEEEGGCELRVKFSRSADAPAYQQGQNQLYNELNLGRREEYDVLDKRRGRDPEMGGKPRRKNPQEGLYNELQKDKMAEAYSEIGMKGERRRGKGHDGLYQGLSTATKDTYDALHMQALPPR | – | – | – | – | – | – | – | binding result (EGFR-mFc [1]): no binding
2 | 20E12 EGFRvIII specific CAR (other, Chimeric antigen receptor on primary human T cells) EVNLVESGGGLVKPGGSLRLSCEASGFTFSYAWMSWVRQAPGKGLEWVGRIKSIADGGATDYAAPVRNRFTISRDDSRNTLYLEMHSLKTEDTAVYYCTTIPGNDAFDMWGQGTMVTVSSGGGGSGGGGSGGGGSGGGGSDIVLTQSPLSLSVTPGEPASISCRSSQSLLYSNGKNYLDWFLHKPGQSPQLLIYLGSNRASGVPDRFSGSGSGIDFILKISRVEAEDVGVYYCMQAQQTPITFGQGTRLEIKTTTPAPRPPTPAPTIASQPLSLRPEACRPAAGGAVHTRGLDFACDIYIWAPLAGTCGVLLLSLVITLYCKRGRKKLLYIFKQPFMRPVQTTQEEDGCSCRFPEEEEGGCELRVKFSRSADAPAYQQGQNQLYNELNLGRREEYDVLDKRRGRDPEMGGKPRRKNPQEGLYNELQKDKMAEAYSEIGMKGERRRGKGHDGLYQGLSTATKDTYDALHMQALPPR | – | – | – | – | – | – | – | binding result (EGFR-mFc [1]): no binding
3 | h62G7-EQ/L6 (antibody, V domains shown, Humanized, human IgG1 recombinant antibody; also called h62G7-L6/EQ) VH: QVQLVQSGAEVKKPGASVKVSCKASGYTFTDYTLHWVRQAPGQGLEWMGGIWPITGGTTYNQKFKGRVTMTRDTSTSTVYMELSSLRSEDTAVYYCARGEAQGSWGQGTLVTVSS VL: DVVMTQSPLSLPVTLGQPASISCKSSQSLLYSNGKTYLNWFQQRPGQSPRRLIYQVSKLDSGVPDRFSGSGSGTDFTLKISRVEAEDVGVYYCGQDTHFPLTFGGGTKVEIK | no binding (tested: 1000 nM) | 43.8 | 0.01 | 240000 | 113 | 0.074 | 660000 | –
4 | h62G7-EQ/L1-DV (antibody, V domains shown, Human IgG1) VH: QVQLVQSGAEVKKPGASVKVSCKASGYTFTDYTLHWVRQAPGQGLEWMGGIWPITGGTTYNQKFKGRVTMTRDTSTSTVYMELSSLRSEDTAVYYCARGEAQGSWGQGTLVTVSS VL: DVVMTQSPLSLPVTLGQPASISCKSSQSLLYSNDKTYTNWFQQRPGQSPRRLIYEVSKLDVGVPDRFSGSGSGTDFTLKISRVEAEDVGVYYCGQDTHFPLTFGGGTKVEIK | no binding (tested: 1000 nM) | 59.9 | – | 200000 | 186 | 0.069 | 370000 | koff [5]: 0.012 s⁻¹
5 | h62G7-H14/L6 (antibody, V domains shown, Human IgG1) VH: QVQLVQSGAEVKKPGASVKVSCKASGYTFTDYTLHWVRQAPGQGLEWMGGIWPITGGTTYNQKFKGRVTMTRDTSTSTVYMELSSLRSEDTAVYYCARGEAEGSWGQGTLVTVSS VL: DVVMTQSPLSLPVTLGQPASISCKSSQSLLYSNGKTYLNWFQQRPGQSPRRLIYQVSKLDSGVPDRFSGSGSGTDFTLKISRVEAEDVGVYYCGQDTHFPLTFGGGTKVEIK | no binding (tested: 1000 nM) | 992 | 0.013 | 13000 | 1580 | 0.068 | 43000 | –
6 | h62G7-H14/L1-DV (antibody, V domains shown, Humanized, human IgG1 recombinant antibody) VH: QVQLVQSGAEVKKPGASVKVSCKASGYTFTDYTLHWVRQAPGQGLEWMGGIWPITGGTTYNQKFKGRVTMTRDTSTSTVYMELSSLRSEDTAVYYCARGEAEGSWGQGTLVTVSS VL: DVVMTQSPLSLPVTLGQPASISCKSSQSLLYSNDKTYTNWFQQRPGQSPRRLIYEVSKLDVGVPDRFSGSGSGTDFTLKISRVEAEDVGVYYCGQDTHFPLTFGGGTKVEIK | no binding (tested: 1000 nM) | 1090 | 0.02 | 18000 | 1540 | 0.1 | 66000 | –
7 | B5 (antibody, V domains shown, From a phage library; recombinant human IgG1) VH: EVQLLESGGGLVQPGGSLRLSCAASGFTFSNYAMSWVRQAPGKGLEWVSDISGGGGRTYYADSVKGRFTISRDNSKNTLYLQMNSLRAEDTAVYYCARAGLLYGGGVYPMDIWGQGTLVTVSS VL: not shown | – | – | – | – | – | – | – | Kd [6]: 678 nM; koff [6]: 0.0141 s⁻¹; kon [6]: 20800 M⁻¹ s⁻¹
8 | C6 EGFRvIII specific CAR (other, Chimeric antigen receptor on primary human T cells; also called EGFRvIII specific clone C6 CAR) QVQLVQSGAEVKKPGSSVKVSCKASGDTFSSNAISWVRQAPGQGLEWMGVIIPIFGTADYAQKFQGRVTITADESTSTAYMELSSLRSEDTAVYYCARHTYHEYAGGYYGGAMDPWGQGTLVTVSSGGGGSGGGGSGGGGSGGGGSELQSVLTQPPSASGTPGQRVTISCSGSSSNIGSNYVYWYQQLPGTAPKILIYRNNQRPSGVPDRFSGSKSGTSASLAISGLRSEDEADYYCAAWDDNLSGWVFGTGTKLTVLTTTPAPRPPTPAPTIASQPLSLRPEACRPAAGGAVHTRGLDFACDIYIWAPLAGTCGVLLLSLVITLYCKRGRKKLLYIFKQPFMRPVQTTQEEDGCSCRFPEEEEGGCELRVKFSRSADAPAYQQGQNQLYNELNLGRREEYDVLDKRRGRDPEMGGKPRRKNPQEGLYNELQKDKMAEAYSEIGMKGERRRGKGHDGLYQGLSTATKDTYDALHMQALPPR | – | – | – | – | – | – | – | binding result (EGFR-mFc [7]): binds
9 | C6 (antibody, V domains shown, From a phage library; recombinant human IgG1) VH: QVQLVQSGAEVKKPGSSVKVSCKASGDTFSSNAISWVRQAPGQGLEWMGVIIPIFGTADYAQKFQGRVTITADESTSTAYMELSSLRSEDTAVYYCARHTYHEYAGGYYGGAMDPWGQGTLVTVSS VL: not shown | – | – | – | – | – | – | – | Kd [6]: 532 nM; koff [6]: 0.00894 s⁻¹; kon [6]: 16800 M⁻¹ s⁻¹
10 | m62G7 (antibody, V domains shown, Tested as murine-human chimeric antibody, captured by anti-human Fc; also called recombinant anti-EGFRvIII chimeric antibody m62G7) VH: EVQLQQSGPELVKPGASVKISCKTSGYTFTDYTLHWVKQSHVKSLEWIGGIDPINGGTTYNQKFKGKATLTVDKSSSTAYMELRSLTSEDSAVYYCARGEAMDSWGQGTSVTVSS VL: not shown | no binding (tested: 1000 nM) | 88.7 | 0.064 | 730000 | 207 | 0.17 | 800000 | –
11 | 30D8 EGFRvIII specific CAR (other, Chimeric antigen receptor on primary human T cells) EVQLVESGGGLVKPGGSLRLSCEASGFTFSDAWMSWVRQAPGKGLEWVGRIKSKTDGGTTDYVVPLNGRFIISRDDSRNTLYLQLNNLKTEDTAVYYCTTVPGSYGYWGQGTLVTVSSGGGGSGGGGSGGGGSGGGGSDIVMTQSPLSLPVTPGEPASISCRSSQSLLHNKRNNYLDWFLQKPGQSPQLLIYLASNRASGVPDRFSGGGSGTDFTLKISRVEAEDVGVYYCMQAQQTPITFGQGTRLEIKTTTPAPRPPTPAPTIASQPLSLRPEACRPAAGGAVHTRGLDFACDIYIWAPLAGTCGVLLLSLVITLYCKRGRKKLLYIFKQPFMRPVQTTQEEDGCSCRFPEEEEGGCELRVKFSRSADAPAYQQGQNQLYNELNLGRREEYDVLDKRRGRDPEMGGKPRRKNPQEGLYNELQKDKMAEAYSEIGMKGERRRGKGHDGLYQGLSTATKDTYDALHMQALPPR | – | – | – | – | – | – | – | binding result (EGFR-mFc [1]): no binding
